± gives the uncertainty stated by the source.
Experiment: protein stability index of a GFP-peptide fusion (yeast GPS) (PSI 1-4); higher = more stable; sorted into four equal gates, so the index is relative within each strain
Conditions: doa10∆
Summary of the method: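 Tiled 17-residue peptides from yeast proteins were fused downstream of GFP on a plasmid that also expresses Cherry, and the pooled library was carried in yeast. Mid-log cultures grown in leucine-free medium were sorted into four equal gates by GFP/Cherry fluorescence ratio. Plasmids from each gate were PCR-amplified and Illumina-sequenced, and reads were assigned to strains by barcodes. Each peptide's protein stability index is the sum, over gates, of the gate's read frequency multiplied by its gate number.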

Sequence	protein stability index
AHVNKVTEETTKQIQSV [SIR4]	2.81 ± 0.095
AIIRLHPSIYTQVFNIL [POP1]	2.02 ± 0.051
AIMSKSSLEELLLKDQQ [ECM29]	2.83 ± 0.09
AINPGRVAASFSQEALQ [FAS1]	2.05 ± 0.15
AINVFPEGYKAKSISTS [RPO31]	2.03 ± 0.05
AIPNPEDVVAISSRTYG [RPS0B]	3.33 ± 0.11
AKAKRRHTTGTGRMRYL [RPL37A]	3.14 ± 0.14
AKDKEIYNKMIGVLNNS [RPN13]	2.6 ± 0.084
AKINEVYNNSKDEYLAQ [NSL1]	2.83 ± 0.047
AKKHKLNAITLDGDRAD [SMC3]	2.37 ± 0.21
AKKRKTLILIQNPENLL [SIR3]	3.04 ± 0.094
AKKTSTSVDGKKRSKVR [HTB2]	3.05 ± 0.19
AKLNHLKKLEKFMELER [SWI3]	2.9 ± 0.064
AKPDNLANFSNEVAMNN [SWP82]	3.22 ± 0.082
AKRDYIISRLNADFQKP [FAS1]	3.32 ± 0.13
AKYHAKLNKKLQHLRSR [SRP68]	3.3 ± 0.088
ALFLSKINRPPVSVSRI [RPL18A]	2.29 ± 0.14
ALGQDTEKMEEQLDLLS [MED11]	3.03 ± 0.099
ALHYLVPFIIAAMVIMH [COB]	1.73 ± 0.066
ALIKFMEYHISNTDETK [FAS2]	2.77 ± 0.1
ALKNACNSIINKLGALK [RPB11]	2.89 ± 0.29
ALLRPGRLDRKVEIPLP [RPT4]	2.99 ± 0.28
ALLTVLKALSHHYNPKT [BRR2]	2.28 ± 0.07
ALPDAVTIIEPKEEEPI [RPS3]	2.93 ± 0.059
ALPHVEINQVSLALVIR [RGR1]	1.91 ± 0.12

Sequence	protein stability index
ALRRRVGPSEQNFAEED [REC8]	3.37 ± 0.12
ALVAGIERYPSKVTKKH [RPL27B]	1.86 ± 0.082
ALYRVNDLRDMILNYNP [UBP6]	2.81 ± 0.12
AMHYSSNIELAFSSVEH [COB]	1.93 ± 0.058
AMIALSMILIQQTEKLN [RPN2]	1.32 ± 0.077
ANAVQNNNGNSAASKKK [SRP21]	3.06 ± 0.11
ANFKTSKKYQLADWRIR [RRP6]	2.97 ± 0.1
ANLRVLNSYWVNQDSTY [RPL15A]	2.62 ± 0.072
ANNNGSNLQRAQNVPMN [GAL11]	3.09 ± 0.096
ANNNINSASSAPTPAAP [SWI1]	2.99 ± 0.064
ANSESGHYQAFIRDELD [UBP6]	3.31 ± 0.28
ANSQIQAYEEIISSNEN [YIL149C/MLP2]	2.95 ± 0.19
ANSSITPAFGSNNTGNT [YJL041W/NSP1]	2.65 ± 0.068
ANTSNNLFGATANANKP [YJL041W/NSP1]	3.32 ± 0.066
ANVEILAVEDKPSPIDS [CSL4]	2.98 ± 0.095
ANVVDITNDWEQPCVDI [YJR042W/NUP85]	3.3 ± 0.071
ANYIKERTKNAQFIVIS [SMC4]	2.76 ± 0.11
APEIPEDLYYLIKKAVS [RPS13]	2.94 ± 0.081
APSIGRWYQLIATGCKD [YGL100W/SEH1]	1.52 ± 0.089
AQAQAQAQAQAQAQAQA [GAL11]	2.95 ± 0.03
AQASEEENDLQQKLNTR [REC8]	2.96 ± 0.26
AQAWINLGEYYAQIGDK [RPN7]	2.41 ± 0.11
AQDEVFSLAFSPNRYWL [ASC1]	2.78 ± 0.24
AQDFINAYASFLQRQGK [RPS19A]	2.91 ± 0.061
AQDFKTDLRFQSSAIGA [HHT1]	1.32 ± 0.12

Sequence	protein stability index
AQFIVISLRNNMFELAQ [SMC4]	2.14 ± 0.11
AQFVSNKQYHQANSNLT [NUT1]	2.94 ± 0.081
AQLTHSLRRIRDEMSKA [MED8]	2.33 ± 0.12
AQYGIKALPIRRDDEVL [RPL26A]	3.63 ± 0.18
ARAPKYASKAVPHYNRL [RPL25]	2.94 ± 0.078
ARENAPSIIFIDEVDSI [RPT3]	2.75 ± 0.14
ARKGLTPSQIGVLLRDA [RPS13]	2.91 ± 0.26
ARKHKLKTLVQGPRSYF [RPS27A]	3.15 ± 0.14
ARKYLQTRWGLPSGRQD [FAS2]	2.54 ± 0.087
ARLPPRATNCRKRKCGH [RPL40A]	2.98 ± 0.094
ARNLYIIAVKGSGSRLN [RPL23A]	1.27 ± 0.041
ARTAANSIYCPTQTVAE [RPN6]	2.63 ± 0.062
ASDMSDEDIITIFKYLT [CDC53]	2.84 ± 0.14
ASELDESKDSIQDLIVK [SMC3]	3.3 ± 0.085
ASEVATHSKLFADKKRD [PRP8]	2.51 ± 0.063
ASEYIETLGLKYLGLKP [FAS1]	3.27 ± 0.095
ASFFFMVMFMHMAKGLY [COB]	1.86 ± 0.046
ASGFGFGGSQPNSGTAT [YGR119C/NUP57]	3.19 ± 0.14
ASGSINRKVLQALEKIG [RPS19A]	1.39 ± 0.071
ASHNEKDQDSQIELSCN [SRP72]	2.85 ± 0.079
ASIGQAAEQQSKAFKES [SRP54]	3.45 ± 0.19
ASKKFGKICLILTRLNG [SSN2]	1.99 ± 0.17
ASKSGKLTQKLVTAGVA [CYT1]	1.85 ± 0.068
ASLHSKELTRIPGEEVE [MED4]	2.97 ± 0.12
ASLNALKESIKNSTSSM [RPN1]	3.07 ± 0.087

Sequence	protein stability index
ASLQQQQQQDLQQQQQV [SNF6]	2.66 ± 0.26
ASRHGQKGTIGITYRRE [RPB2]	2.53 ± 0.08
ASSKAVTRGISVLKDSD [PRE1]	2.4 ± 0.058
ASSSAKLIEKKSAYANT [SMC2]	2.82 ± 0.1
ASSWAKKIAQRERRAAL [RPL14A]	2.53 ± 0.099
ATAIGKGSVAAKTFLEK [PRE8]	2.13 ± 0.2
ATDVEARAVQDNGESAF [RPL13A]	3.16 ± 0.11
ATFSVSQASSDLGETFR [CSL4]	3.04 ± 0.086
ATLYIPKALRFDRLVAG [FAS2]	2.88 ± 0.22
ATPGRLIDSLENHLLVM [PRP28]	2.66 ± 0.067
ATPQDAQFYLGKRIAYV [RPL33A]	2.29 ± 0.082
ATQSGGVRPFGVSLLIA [PRE8]	1.29 ± 0.071
ATSFSRKKARTFDSSWN [FAS2]	2.22 ± 0.17
ATTSVMMVNNQTMQLIK [SRB6]	3.09 ± 0.16
AVAASSTKTGTPSDLSE [POP1]	3.3 ± 0.084
AVARLKSMNKSAINQYN [SNF2]	1.81 ± 0.073
AVCSTATVVSTNHSAAA [PGD1]	2.85 ± 0.064
AVDLEHHDYRSYYGIVC [RRP6]	2.5 ± 0.067
AVEFESVPLRKGDRALL [BRR2]	3.16 ± 0.29
AVTHNLYYDEDINVESL [PUP2]	3.16 ± 0.11
AVVQTVKGLLNTYKRLV [YJL039C/NUP192]	1.8 ± 0.11
AYIKLLDQTKDTRITHL [SNF2]	2.65 ± 0.085
AYILAAQKTSFEYEGVQ [RPN1]	2.39 ± 0.072
AYPAAREQFLNAQDIDH [FAS1]	3.13 ± 0.082

From the supplement of paper PMC9732359
